We go through nine proteins from the PETadex activity labels (doi:10.1042/bj20021862).

Residue numbers refer to the chain shown, from its start.

Substrate in this data set: Acetylcholine
The following applies: pH 7; 22 °C.

The term Km denotes the substrate concentration at which the rate is half of its maximum. A word on the kcat: it is the number of substrate molecules converted per active site and unit of time at saturation. The term kcat/Km denotes the turnover number divided by the Michaelis constant.

B1: unnamed (protein)
chain: MRPPWYPLHTPSLAFPLLFLLLSLLGGGARAEGREDPQLLVRVRGGQLRGIRLKAPGGPVSAFLGIPFAEPPVGSRRFMPPEPKRPWSGVLDATTFQNVCYQYVDTLYPGFEGTEMWNPNRELSEDCLYLNVWTPYPRPASPTPVLIWIYGGGFYSGAASLDVYDGRFLAQVEGAVLVSMNYRVGTFGFLALPGSREAPGNVGLLDQRLALQWVQENIAAFGGDPMSVTLFGESAGAASVGMHILSLPSRSLFHRAVLQSGTPNGPWATVSAGEARRRATLLARLVGCPPGGAGGNDTELIACLRTRPAQDLVDHEWHVLPQESILRISFVPVVDGDFLSDTPEALINTGDFQDLQVLVGVVKDEGSAFLVYGVPGFSKDNESLISRAQFLAGVRIGVPQASDLAAEAVVLHYTDWLHPEDPTHLRDAMSAVVGDHNVVCPVAQLAGRLAAQGARVYAYIFEHRASTLTWPLWMGVPHGYEIEFIFGLPLDPSLNYTTEERIFAQRLMKYWTNFARTGDPNDPRDSKSPQWPPYTTAAQQYVSLNLKPLEVRRGLRAQTCAFWNRFLPKLLSATDTLDEAERQWKAEFHRWSSYMVHWKNQFDHYSKQERCSDL
With B1, the Km was found to be 69 µM, the kcat is 250 s⁻¹ and the catalytic efficiency (kcat/Km) was found to be 3.62e+06 M⁻¹ s⁻¹.

B2: unnamed (protein)
chain: B1 chain with E233Q, I328F
In the case of B2, the Michaelis-Menten constant (Km) came to 100 µM, the kcat stood at 167 s⁻¹ and the kcat/Km was 1.67e+06 M⁻¹ s⁻¹.

B3: unnamed (protein)
chain: B1 chain with L326F, I328L
As for B3, the Michaelis-Menten constant (Km) is 100 µM, the kcat turned out to be 667 s⁻¹ and the specificity constant (kcat/Km) was 6.67e+06 M⁻¹ s⁻¹.

B4: unnamed (protein)
chain: B1 chain with L326A, I328F
Take B4: the Km came out at 76 µM, the kcat came out at 333 s⁻¹ and the specificity constant (kcat/Km) turned out to be 4.39e+06 M⁻¹ s⁻¹.

B5: unnamed (protein)
chain: B1 chain with L326F, I328F, F369A
With B5, the Km amounted to 150 µM, the kcat was found to be 650 s⁻¹ and the kcat/Km turned out to be 4.33e+06 M⁻¹ s⁻¹.

B6: unnamed (protein)
chain: B1 chain with I328A
Regarding B6, the Km came out at 190 µM, the kcat was 183 s⁻¹ and the kcat/Km was found to be 965000 M⁻¹ s⁻¹.

B7: unnamed (protein)
chain: B1 chain with I328F, F369A
On to B7, for which the Michaelis-Menten constant (Km) was 150 µM, the kcat was 283 s⁻¹ and the kcat/Km was 1.89e+06 M⁻¹ s⁻¹.

B8: unnamed (protein)
chain: B1 chain with L326F
Regarding B8, the Km came out at 340 µM, the turnover number (kcat) amounted to 233 s⁻¹ and the kcat/Km came out at 686000 M⁻¹ s⁻¹.

B9: unnamed (protein)
chain: B1 chain with L326F, I328F, A368Y
Take B9: the Km was 47 µM, the kcat amounted to 2500 s⁻¹ and the kcat/Km was found to be 5.32e+07 M⁻¹ s⁻¹.
